Here are results for 1 molecule from patent US20220047684A1, “ENZYMES AND METHODS FOR PREVENTING AND TREATING […] IN ANIMALS” (Ecto Development Corporation, priority 2020, published 2022).

Assay type in all cases: biochemical
Data set [1] is described as follows: Order of pyrethroid hydrolysis efficiency of PytH2. The following applies: pyrethroid substrates. The source says:
Activity of the enzyme: In order of hydrolysis efficiency: transpermethrin>cis-permethrin>fenpropathrin>trans-cypermethrin>cis-cypermethrin>cyhalothrin>fenvalerate>deltamethrin>bifenthrin.

Data set [2] can be described thus: Cypermethrin degradation, HPLC. The following applies: 50 ppm cypermethrin in 1 mL PBS with 10 μL pPytH2; 15 minutes at 37 C, 300 rpm. The procedure:
50 ppm of cypermethrin was placed in 1 mL PBS with 10 μL pPytH2, PytH2 and reacted for 15 minutes at 37 C with shaking at 300 rpm. HPLC was run on the sample after being diluted 1:1 MeOH using instrument method described above for permethrin for 10 minutes.

The nature of data set [3]: Serum analysis: cat serum plus permethrin +/- E3, HPLC. The following applies: for % permethrin control: relative to no enzyme. As for the experimental part:
The next step was to test the enzymatic hydrolysis of permethrin in feline blood (cat serum). Cat serum was acquired, permethrin was added to the serum and was assayed as a control by HPLC. After the cat serum control was analyzed three different concentrations of the enzyme were introduced to the cat serum control and then analyzed by HPLC.
Cat serum was acquired, permethrin was added to the serum and was assayed as a control by HPLC. After the cat serum control was analyzed three different concentrations of the enzyme were introduced to the cat serum control and then analyzed by HPLC.

A short description of data set [4]: Biological permethrin assay for esterase activity (activity units of esterases). The following applies: esterases used in reaction mix for scud assay. As for the experimental part: A biological permethrin assay was performed for control, and three esterases pnbA, pytH2 and MsE1. The sensitivity of scuds (Hyalella Azteca) to permethrin was tested with three esterases pnbA, pytH2 and MsE1.
For control and each of the three esterases pnbA, pytH2 and MsE1, ten scuds were exposed to permethrin and one of pnbA, pytH2 or MsE1.
• 100 μL 50% MeOH in PBS • 0.2 μg/μL
• 37 degree C. • 18 hr • Shanking 1000 rpm Transferred 20 μL rxn mix [4 μg] to 100 mL [containing 10 scuds] At time, 24 h and 48 h the ten scuds were scored: A=Alive and Moving actively BA=Barely Alive—Difficulty swimming away; only legs are moving D=Dead—Not moving at all The results of which are shown in FIGS. 8 and 9.

A short description of data set [5]: Fenpropathrin degradation, HPLC. The following applies: 20 ppm fenpropathrin; 15 minutes at 37 C with shaking. As for the experimental part:
1000 ppm fenpropathrin was diluted to 5 point curve which was able to detect on HPLC the gradient of 20% water and 80% using the instrument method described above for permethrin. 20 ppm of […] was placed in […] with 10 μL […] and reacted for 15 minutes at 37 C with shaking. HPLC was run on the sample after being diluted 1:1 MeOH using instrument method described above for permethrin. A 90% degradation of fenpropathrin was detected with PytH2.

B1: E3: carboxylesterase PytH2 (pytH) from Sphingobium wenxiniae, amino acid SEQ. ID No. 3, DNA SEQ. ID No. 6; recombinant, His-tagged (protein, listed as Sphingobium wenxiniae)
chain: MTVTDIILIHGALNRGACYDAVVPLLEARGYRVHAPDLTGHTPGDGGHLSVVDMEHYTRPVADILARAEGQSILLGHSLGGASISWLAQHHYDKVAGLIYLTAVLTAPGITPETFVLPGEPNRGTPHALDLIQPVDEGRGLQADFSRLERLREVFMGDYPGEGMPPAEQFIQTQSTVPFGTPNPMEGRALEIPRLYEALDDVVIPIAVQRQMQKEFPGPVAVVSLPASHAPYYSMPERLAEAIADFADAPAEYRQTATKAGPDRPAGADGGRADRADLP
modifications: His tag
notes: ID No. 6; recombinant, His-tagged
Consider B1, for which the “order of hydrolysis efficiency” value in data set [1] is reported as “transpermethrin>cis-permethrin>fenpropathrin>trans-cypermethrin>cis-cypermethrin>cyhalothrin>fenvalerate>deltamethrin>bifenthrin”. Also, in data set [2], the Cypermethrin degradation rate was determined as 12.69 nmol/min/μg pPytH2. In addition, in data set [3] (2.5 μL E3, 15 min 37 degree C.), the “Cis-permethrin (HPLC area)” value is given as 1624.5, the “Total permethrin (area)” value was determined as 1624.5 area, the “Total permethrin (expected 2 ppm)” value turned out to be 0.098 ppm and the “Trans-permethrin (HPLC area)” value is 0. Also, the “% permethrin control” value in data set [3] (2.5 μL E3, 15 min 37 degree C.) came out at 7.0%. Further, in data set [3] (10 μL E3, 15 min 37 degree C.), the “Cis-permethrin (HPLC area)” value is on record as 0, the “Total permethrin (area)” value worked out at 0 area, the “Total permethrin (expected 2 ppm)” value turned out to be 0.000 ppm and the “Trans-permethrin (HPLC area)” value is 0. For the same molecule, the “% permethrin control” value in data set [3] (10 μL E3, 15 min 37 degree C.) was 0.0%. Moreover, the “% permethrin control” value in data set [3] (10 μL E3, 15 min 37 degree C., listed as PytH2) is reported as 0.0%. Also, in data set [3] (30 μL E3, 15 min 37 degree C.), the “Cis-permethrin (HPLC area)” value was found to be 0, the “Total permethrin (area)” value is listed as 0 area, the “Total permethrin (expected 2 ppm)” value was found to be 0.000 ppm and the “Trans-permethrin (HPLC area)” value came out at 0. Moreover, the “% permethrin control” value in data set [3] (30 μL E3, 15 min 37 degree C.) turned out to be 0.0%. Further, in data set [4], the Activity units was 31.6. Also, the degradation of fenpropathrin in data set [5] worked out at 90%.
